Test results taken from patent publication EP4663661A1 (Hainan Simcere Zaiming Pharmaceutical Co., Ltd., dated 2025).
Read-outs that look alike come from different tables or passages of the source.

T1: his-tagged human CDH6 extracellular region protein (hCDH6 ECD-his) (human, UniProt P55285 54-615)
T1 construct: also called hCDH6-his; Human CDH6-his; not shown: his tag
T1 sequence: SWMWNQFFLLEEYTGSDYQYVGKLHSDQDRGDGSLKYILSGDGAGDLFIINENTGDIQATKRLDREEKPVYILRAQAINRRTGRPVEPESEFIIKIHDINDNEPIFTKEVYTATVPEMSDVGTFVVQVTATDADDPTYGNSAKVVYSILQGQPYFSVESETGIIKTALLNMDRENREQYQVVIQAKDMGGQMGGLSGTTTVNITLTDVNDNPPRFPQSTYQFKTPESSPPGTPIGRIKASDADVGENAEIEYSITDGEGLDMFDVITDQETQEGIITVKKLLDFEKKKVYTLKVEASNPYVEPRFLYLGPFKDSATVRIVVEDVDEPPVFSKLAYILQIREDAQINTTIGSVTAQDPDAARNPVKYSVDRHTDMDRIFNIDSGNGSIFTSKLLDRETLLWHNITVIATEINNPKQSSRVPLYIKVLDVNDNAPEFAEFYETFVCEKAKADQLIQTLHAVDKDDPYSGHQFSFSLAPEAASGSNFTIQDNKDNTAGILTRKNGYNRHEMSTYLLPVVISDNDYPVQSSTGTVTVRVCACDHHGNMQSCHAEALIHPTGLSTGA


Assays:
[1] = target: his-tagged human CDH6 extracellular region protein (hCDH6 ECD-his) (human) (UniProt P55285); test: ELISA, antigen coated
[2] = target: monkey CDH6 protein (cynoCDH6 ECD-his) (monkey (cyno)); test: ELISA, antigen coated
[3] = target: murine CDH6 protein (mCDH6 ECD-his) (mouse) (UniProt P97326); test: ELISA, antigen coated
[4] = target: human CDH6 protein, full length, on cells (OVCAR3, PA-1) (human) (UniProt P55285); test: FACS, PA-1 cells
[5] = target: human CDH6 protein, full length, on cells (OVCAR3, PA-1) (human) (UniProt P55285); test: FACS, OVCAR3 cells
[6] = target: human CDH6 with EC2 removed, on HEK293T cells (HEK293T-hCDH6-EC2 deletion) (human) (UniProt P55285); test: FACS, HEK293T-hCDH6-EC2 deletion cells
[7] = target: human CDH6 with EC4 removed, on HEK293T cells (HEK293T-hCDH6-EC4 deletion) (human) (UniProt P55285); test: FACS, HEK293T-hCDH6-EC4 deletion cells
[8] = target: human CDH6 with EC1 removed, on HEK293T cells (HEK293T-hCDH6-EC1 deletion) (human) (UniProt P55285); test: FACS, HEK293T-hCDH6-EC1 deletion cells
[9] = target: human CDH6 with EC5 removed, on HEK293T cells (HEK293T-hCDH6-EC5 deletion) (human) (UniProt P55285); test: FACS, HEK293T-hCDH6-EC5 deletion cells
[10] = target: human CDH6 with EC3 removed, on HEK293T cells (HEK293T-hCDH6-EC3 deletion) (human) (UniProt P55285); test: FACS, HEK293T-hCDH6-EC3 deletion cells
[11] = target: T1, his-tagged human CDH6 extracellular …; test: ELISA, antigen coated
[12] = target: T1, his-tagged human CDH6 extracellular …; test: ELISA, antigen coated; remark: listed apart in the source
[13] = target: T1, his-tagged human CDH6 extracellular …; test: SPR Biacore, antibody captured on Protein A chip

| Max OD450 [3] | EC50 [3] | Max MFI [6] | Max MFI [7] | Max MFI [8] | Max MFI [9] | Max MFI [10] | Molecule | also measured |
| --- | --- | --- | --- | --- | --- | --- | --- | --- |
| 0.1 OD450 |  |  |  |  |  |  | hIgG1 (antibody) | Max OD450 [1]: 0.07 OD450; Max OD450 [2]: 0.06 OD450; Max MFI [4]: 64 MFI; Max MFI [5]: 63 MFI |
| 1.77 OD450 | 40 pM |  |  |  |  |  | CHI-CDH6-11 (antibody, human IgG1, kappa, V domains shown) VH: QIQLQQSGPELVKPGASVRISCKASGYTFTDYYITWVKLRPGQGLEWIGWIYPGSVNIKYNEKFKGKATLTVDTSSSTAYMQLNSLTSEDSAVYFCARGGYSWFPYWGQGTLVTVSA VL: NIVMTQSPKSMSMSVGERVTLSCKASENVHTYVSWYQQKPEQSPKLLFYGASTRNTGVPDRFTGSGSATDFTLTISSVQAEDLADYYCGQSYSYPYTFGSGTKLEIKR |  |
| 0.6 OD450 |  | 8390 MFI | 11800 MFI | 5290 MFI | 1530 MFI |  | DS-H01L02 (antibody, human IgG1, kappa, V domains shown) VH: EVQLVQSGAEVKKPGASVKVSCKASGYTFTRNFMHWVRQAPGQGLEWMGWIYPGDGETEYAQKFQGRVTITADTSTSTAYMELSSLRSEDTAVYYCARGVYGGFAGGYFDFWGQGTLVTVSS VL: DIQMTQSPSSLSASVGDRVTITCKASQNIYKNLAWYQQKPGKAPKLLIYDANTLQTGVPSRFSGSGSGSDFTLTISSLQPEDFATYFCQQYYSGWAFGQGTKVEIKR |  |
| 1.6 OD450 | 25 pM |  |  |  |  |  | CHI-CDH6-6 (antibody, human IgG1, kappa, V domains shown) VH: EVQLQQSGPELVKPGDSVKMSCKASGYTFTDYYMAWVRQSHRKSLEWIGYIFPNSGGTDYSQKFKGKATLTVDKSSSTVYMELHSLTSEDSAVYYCARELGADYGDYYAMDHWGQGTSVSVSS VL: DIQMTQSPASLSASVGETVTITCRASENIDSYLAWYQQKQGKSPQLLVYSATLLADGVPSRFSGSGSGTQYSLKINSLKSEDVARYYCQHYYRTPPTFGSGTKLEIKR |  |
| 1.82 OD450 | 28 pM |  |  |  |  |  | CHI-CDH6-8 (antibody, human IgG1, kappa, V domains shown) VH: EVQLQQSGPELVKPGDSVKMSCKASGYTFTDYYMAWIKQNHGKSLEWIGYIYPNNGGTDYNQKFRGKATLTVDKSSSAAYMELHSLTSEDSAVYYCAREIGTLYGDYYAMDYWGQGTSVTVSS VL: DIQMTQSPASLSASVGETVTITCRASENIDSYLAWYQQKQGKSPQLLVYTATLLADGVPSRFSGSGSGTQYSLKINSLQSEDVARYYCQHYYSTPPTFGSGTKLEIKR |  |
| 2.12 OD450 | 58 pM | 13000 MFI | 17400 MFI | 88 MFI | 1020 MFI | 9060 MFI | CHI-CDH6-7 (antibody, human IgG1, kappa, V domains shown) VH: EVKLVESGGGLVKPGGSLKVSCAASGFTFSDHGMAWVRQAPGKGPEWVAFISNLAYSIYYADTVTGRFTISRENAKNTLYLEMSSLRSEDTAMYYCARVYVKWYFDVWGAGTTVTVSS VL: DIQMTQSPASLSASVGETVTITCRASENIDSYLAWYQQKQGKSPQLLVFAATLLADGVPSRFSGSGSGTQYSLKINSLQSEDVARYYCQHYYSTPLTFGAGTKLELKR |  |
| 2.42 OD450 | 39 pM | 39100 MFI | 20600 MFI | 23600 MFI |  | 16300 MFI | NOV0712 (antibody, human IgG1, kappa, V domains shown) VH: QVQLLESGGGLVQPGGSLRLSCAASGFTFSSHGMHWVRQAPGKGLEWVSVISGSGSNTGYADSVKGRFTISRDNSKNTLYLQMNSLRAEDTAVYYCARQWGSYAFDSWGQGTLVTVSS VL: DIQMTQSPSSLSASVGDRVTITCRASQSISSYLNWYQQKPGKAPKLLIYAVSTLQSGVPSRFSGSGSGTDFTLTISSLQPEDFATYYCQQSGTFPPTTFGQGTKVEIKR |  |
| 2.48 OD450 | 49 pM | 814 MFI | 26600 MFI | 7210 MFI | 4040 MFI | 755 MFI | CHI-CDH6-14 (antibody, human IgG1, kappa, V domains shown, also called CHI- hCDH6-14) VH: QIQLQQSGPELVKPGTSVKISCKASGYTFTDNYINWVRQRPGQGLEWIGWIYPGTGNSYYNEKFKGKATLTVDTSSSTAYMQFSSLTSEDSAVYLCASSYGDSFDYWGQGTTLTVSS VL: DIQMTQTTSSLSASLGNRVTISCRASQDIRNYLNWYQQKPDGTFKLLISYTSRLHSGVPSRFSGSGSGTDYSLTVSNLEPEDIATYYCQQYSQLPWTFGGGSRLEIKR | Max OD450 [11]: 2.65 OD450; Max OD450 [12]: 2.5 OD450 |
|  |  |  |  |  |  |  | hCDH6-1-H1L1 (antibody, human IgG1, kappa, V domains shown) VH: EVQLVQSGAEVKKPGSSVKVSCKASGYTFSNYWMHWVRQAPGQGLEWMGDIDPSHSETHYTQKFKDRVTITVDKSTSTAYMELSSLRSEDTAVYYCARGDLGRFDYWGQGTTVTVSS VL: DIVMTQSPDSLAVSLGERATINCRASESVSIHGTHLMHWYQQKPGQPPKLLIYAASNLESGVPDRFSGSGSETDFTLTISSLQAEDVAVYYCQQSFEDPWTFGGGTKVEIKR | kon [13]: 2100 M⁻¹ s⁻¹ |
| 2.32 OD450 | 35 pM | 75 MFI | 22200 MFI | 10200 MFI | 6540 MFI | 15100 MFI | CHI-CDH6-4 (antibody, human IgG1, kappa, V domains shown) VH: QVQLQQSGPELVKPGASVKISCKASGYAFSNFWMNWVKQRPGKGLEWIGWIYPGDGDTNYNGKFKDKATLTADKSSSTAYIQLSSLTSEDSAVYFCARLYDAWGFFDYWGQGTTLTVSS VL: QIVLTQSPAIMSASPGQKVTITCSASSSVNYMHWYQQKLGSSPKLWIYDKSKLAPGVPARFSGSGSGTSYSLTISSMEAEDAASYFCHQWSSYPPMTFGGGTKLEIKR |  |
| 1.92 OD450 | 46 pM | 343 MFI | 18700 MFI | 112 MFI | 4240 MFI | 12200 MFI | CHI-CDH6-5 (antibody, human IgG1, kappa, V domains shown) VH: QVQLQQSGAELVRPGTSVKMSCKAAEYTFTNYWIGWVKQRPGHGLEWIGDLYPGGDHANYNEKFEGKATLTADTSSSTAYMQLSSLTSEDSAIYYCARGMLTTGFDSWGQGTTLTVSS VL: DIVMSQSPSSLAVSAGEKVTMSCKSSQSLFNSRTRKNYLAWYQQKPGQSPKLLIYWASTRESGVPDRFTGSGSGTDFTLTISSVQAEDLAVYYCKQSYYLRTFGGGTKLEIKR |  |
| 1.62 OD450 | 23 pM |  |  |  |  |  | CHI-CDH6-2 (antibody, human IgG1, kappa, V domains shown) VH: EVQLQQSGPELVKPGASVRISCKASGYTFTDYYMNWVKQSHGKSLEWIGDIDPNNANTTYNQKFKGKATLTVDKSSSTAYMELRSLTSEDSAVYSCASFGYDVEWFGYWGQGTLVTVSA VL: QIVLTQSPALMSASPGEKVTMTCSASSSVSYMYWYQQKPRSSPKPWIYLTSNLASGVPARFSGSGSGTSYSLTISSMEAEDAATYYCQQWSSNPFTFGSGTKLEIKR |  |
| 2.76 OD450 | 16 pM |  |  |  |  |  | CHI-CDH6-13 (antibody, human IgG1, kappa, V domains shown) VH: DVQLQESGPGLVKPSQSLSLTCSVTGYSITKDSYWNWIRQFPGSKLEWMGFISYDGSRHYNPSLKNRISITRDTSKNQFFLQLNSVTTEDTATYYCARRDYADYWGQGTTLTVSS VL: QIVLTQSPALMSAFPGEKVTMTCSATSSVSYIYWYQQKPRSSPKPWIYLTSNLASGVPARFSGSGSGTSYSLTINSLEAEDAATYYCQQWSSIPYTFGGGTKLEIKR |  |
| 2.77 OD450 | 22 pM |  |  |  |  |  | CHI-CDH6-9 (antibody, human IgG1, kappa, V domains shown) VH: QVQLQQPGAELVKPGASVKLSCKASGYTFTGYWMHWVRQRPGQGLEWIGEINPNNGGTNCNEQFKNKATLTVDKSSSTAYMQLSSLTSEDSAVFYCTISFGNYLFFDVWGAGTTVTVSS VL: DIQMTQSPASLAASVGETITITCQASENIYFSLAWYQQKQGKSPQLLIYNANTLEDGVPSRFVGSGSGTQYSMKINSIQPEDTATYFCDQTYDFPWTFGGGTKLEIKR |  |
| 2.38 OD450 | 51 pM | 7550 MFI | 16800 MFI | 11100 MFI | 5610 MFI | 689 MFI | CHI-CDH6-3 (antibody, human IgG1, kappa, V domains shown) VH: QVQLQQPGAELVKPGASVKLSCKASGYTFTSYWIHWVKQRPGQGLEWIGEINPSNGVTNCNENFKSKATLTVDKSSSTAYMQLSSLTSEDSAVYYCTIPNLLWWYFDVWGAGTTVTVSS VL: DIQMTQSPASLSVSVGETVTITCRASENIYSNLAWYQQKQGKSPQLLVYEATNLADGVPSRFSGSGSGTQYSLKINSLQSEDFGSYYCQHFWGTLWTFGGGTKLEIKR |  |
